Measurements reported in paper PMC11407090, “Kinetic and in silico structural characterization of norbelladine O-methyltransferase of Amaryllidaceae alkaloids biosynthesis” (The Journal of Biological Chemistry, 2024).

Tests used:
[1] = substrate: O=Cc1ccc(O)c(O)c1; assay: LC-MS/MS methyltransferase assay, nonlinear regression; format: biochemical, Narcissus papyraceus; details: SAM as methyl donor, Zn^2+, product vanillin (3-O-methylation, major product), optimized condition pH 7.4, 45 °C
Text: (§1) LC-MS/MS methyltransferase assay, nonlinear regression on NpOMT

[2] = substrate: Oc1ccc(CCNCc2ccc(O)c(O)c2)cc1; assay: as above; format: biochemical, Narcissus papyraceus; details: SAM as methyl donor, Mg^2+, product 4'-O-methylnorbelladine, optimized condition pH 7.4, 45 °C, 30 min
Text: as §1

B1: NpOMT (Narcissus papyraceus) (protein)
chain: MGASQDDYALIHKNILHSEELLKYILETSAYPREHEQLKGLREVTEKHEWSSALVPADEGLFLSMLLKLMNAKRTIEIGVYTGYSLLTTALALPEDGKITAIDVNKSFFEIGLPFIQKAGVEHKINFIESEALPVLDQMVQEMKEEDLYDYAFVDADKSNYANYHERLVKLVRVGGAILYDNTLWYGSVAYPEYPGLHPEEEVARLSFRQLNTLLAADPRVEISQVSIGDGVTICRRLY
notes: homodimer only modelled
B1 gave a Km [1] of 491 ± 51 µM, a Vmax [1] of 19.1 µM/min and a kcat [1] of 0.0637 ± 0.0025 s⁻¹. It also gave a kcat/Km [1] of 130 M⁻¹ s⁻¹, a Km [2] of 169 ± 19 µM and a Vmax [2] of 10.9 µM/min. It also gave a kcat [2] of 0.0362 ± 0.004 s⁻¹ and a kcat/Km [2] of 214 M⁻¹ s⁻¹.
